This passage reports Kd results from article PMC11665613 (2024).

Test in all cases: MST
The target in experiment [1] is NCP1, nucleosome core particle with 3xFLAG-H3K36NleCS+me2 (X. laevis | , cysteine at position 36 alkylated with vinyl dimethylsulfonium 4 (NleCS+me2)).
The target of experiment [2] is NCP3, nucleosome core particle with 3xFLAG-H3Kc36me3 (X. laevis | , Kc36me3 (trimethyllysine mimic on cysteine at position 36)).
Experiment [3] concerns the target NCP2, nucleosome core particle with 3xFLAG-H3K36NleCTMS (X. laevis | , cysteine at position 36 alkylated with vinyl cyclic sulfonium 5 (NleCTMS)).

B1: PWWP domain of LEDGF (domain or fragment)
chain: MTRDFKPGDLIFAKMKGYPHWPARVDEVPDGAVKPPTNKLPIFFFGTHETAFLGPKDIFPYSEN
The term Kd denotes a measure of binding affinity in units of concentration. Lower therefore signals higher affinity. B1: the Kd in experiment [1] stood at 0.52 µM; in experiment [2], 1.4 µM; in experiment [3], 1.2 µM.

B2: PWWP domain of NSD2 (domain or fragment)
chain: VGDLVWSKVSGYPWWPCMVSADPLLHSYTKLKGQKKSARQYHVQFFGDAPERAWIFEKSLVAFEG
In the case of B2, the Kd in experiment [1] came out at 1.1 µM; in experiment [2], 1.4 µM; in experiment [3], 1.6 µM.
